Assay results: patent publication US20230243822A1, “MOLECULAR DISEASE PROFILE AND USE THEREOF FOR MONITORING AND TREATING RHEUMATAOID ARTHRITIS” (JANSSEN BIOTECH, INC., priority 2020, published 2023)

Test system: 4-analyte M-DP panel (CRP, CXCL10, CXCL13, SAA)
Assay: Pharmacodynamic M-DP score, 4-analyte panel CRP, CXCL10, CXCL13, SAA (SOMAscan), clinical studies in RA
Assay type: in vivo, human
Details: 4-analyte; for M-DP score mean difference ± SD, Good vs. No / M-DP score mean ± SD, DAS28-CRP response group Good / M-DP score mean ± SD, DAS28-CRP response group Moderate / M-DP score mean ± SD, DAS28-CRP response group No: response at week 24
Description: Serum samples and data from eight interventional clinical studies with seven different active treatments for RA or placebo treatment were obtained and analyzed: sirukumab (anti-IL-6) and placebo treatments in SIRROUND-M (NCT01689532; Takeuchi T, et al. Arthritis Res Ther. 2018 Mar. 7; 20(1): 42), SIRROUND-D (NCT01604343; Takeuchi T, et al. Ann Rheum Dis. 2017 Dec.; 76(12): 2001-2008), and SIRROUND-T (NCT01606761; Aletaha D, et al. Lancet. 2017 Mar. 25; 389(10075): 1206-1217); sirukumab and adalimumab (anti-TNF-alpha) treatments in SIRROUND-H (NCT02019472; Taylor PC, et al. Ann Rheum Dis. 2018 May; 77(5): 658-666); golimumab (anti-TNF-alpha) treatment in GO-FURTHER (NCT00973479; Weinblatt ME, et al. Ann Rheum Dis. 2013 March; 72(3): 381-9); guselkumab (anti-IL-23p19), ustekinumab (anti-IL-12/IL-23p40), and placebo treatments in CNTO1275ARA2001 (NCT01645280; Cox JD, et al. […]); JNJ-40346527 (colony-stimulating factor-1 inhibitor) and placebo treatments in 40346527ARA2001 (NCT01597739; Genovese MC, et al. J Rheumatol. 2015 October; 42(10): 1752-60). Plasma samples were obtained from the RA-MAP TACERA study (Cope AP, et al. Nat Rev Rheumatol. 2018 January; 14(1): 53-60) before (baseline) and 6-months after initiation of conventional synthetic disease-modifying anti-rheumatic drugs (csDMARDs). Details of treatment dose groups, concomitant methotrexate use, and previous experience with csDMARDs and biologics are reported in Table 1. The studies were conducted in accordance with the Declaration of Helsinki. The study protocols were reviewed and approved by an independent ethics committee or institutional review board for each study center. Written informed consent was obtained from all patients before study entry. Additional study details and patient characteristics are available in the referenced publications for each study. For SIRROUND-D and SIRROUND-T studies, sets of serum samples from demographically-matched healthy controls were obtained from commercial sources (BioIVT, Westbury, N.Y.).
Serum samples from baseline (week 0) and the time points indicated in Table 1 were provided for quantification of 1189 serum analytes using the SomaScan v3.1 platform (SomaLogic, Boulder, Colo.; www.somalogic.com), with the exception of RA-MAP TACERA, for which plasma samples were analyzed for 1301 analytes using the SomaScan v3.2 platform. For some studies, a redacted dataset reporting data for a subset of the analytes was obtained. Relative fluorescence unit (RFU) data were sequentially normalized for hybridization controls (internal standards per samples), median signal across all samples (assumes same total protein concentration across sample set), and calibration controls (common sample standards across analysis plates). Samples failed quality control standards defined by Somalogic were excluded from analyses. The normalized RFU values were log2-transformed for subsequent analyses.
Changes in analyte expression levels were calculated for individual samples as the log2 transform of the ratio of the analyte level at the indicated time point (visit level) over the analyte level at baseline (baseline level) for a given subject, i.e., log 2(visit level/baseline level). Changes in RA disease-associated analytes per sample were summarized using a pharmacodynamic (PD) molecular disease profile (M-DP) score, defined as the median value of the log 2(visit level/baseline level) values for analytes in the defined M-DP analyte set. […] PD M-DP scores in the log 2(visit level/baseline level) scale can be transformed to percent change from baseline, using the transformation: (2^M-DP score−1)×100%.
In selecting the best minimal set of analytes that performs similarly to the full 14-analyte set, analyte sets that results in significant associations between DAS28-CRP EULAR good vs. no response with p<0.05 for each study were prioritized (Table 4). […]

[1] = SIRROUND-D, score at week 4, sirukumab SC 50 mg q4w
[2] = SIRROUND-D, score at week 4, sirukumab SC 100 mg q2w
[3] = SIRROUND-D, score at week 24, sirukumab SC 50 mg q4w
[4] = SIRROUND-D, score at week 24, sirukumab SC 100 mg q2w
[5] = SIRROUND-H, score at week 4, sirukumab SC 50 mg q4w or adalimumab SC 40 mg q2w
[6] = SIRROUND-M, score at week 4, sirukumab SC 50 mg q4w
[7] = SIRROUND-M, score at week 4, sirukumab SC 100 mg q2w
[8] = SIRROUND-T, score at week 4, sirukumab SC 50 mg q4w
[9] = SIRROUND-T, score at week 4, sirukumab SC 100 mg q2w
[10] = SIRROUND-T, score at week 24, sirukumab SC 50 mg q4w
[11] = SIRROUND-T, score at week 24, sirukumab SC 100 mg q2w

B1: Sirukumab (antibody, chains of the INN, looked up, V domains shown)
VH: EVQLVESGGGLVQPGGSLRLSCAASGFTFSPFAMSWVRQAPGKGLEWVAKISPGGSWTYYSDTVTGRFTISRDNAKNSLYLQMNSLRAEDTAVYYCARQLWGYYALDIWGQGTTVTVSS
VL: EIVLTQSPATLSLSPGERATLSCSASISVSYMYWYQQKPGQAPRLLIYDMSNLASGIPARFSGSGSGTDFTLTISSLEPEDFAVYYCMQWSGYPYTFGGGTKVEIK
notes: a human anti-interleukin-6 (IL-6) monoclonal antibody
[1]
  M-DP score mean ± SD, All treated: −1.09 ± 0.80 log2 (fold/baseline)
  M-DP score mean difference ± SD, Good vs. No: −0.47 ± 0.79 (0.0012) log2 (fold/baseline)
  M-DP score mean ± SD, DAS28-CRP response group Good: −1.26 ± 0.78 log2 (fold/baseline)
  M-DP score mean ± SD, DAS28-CRP response group Moderate: −1.05 ± 0.76 log2 (fold/baseline)
  M-DP score mean ± SD, DAS28-CRP response group No: −0.79 ± 0.81 log2 (fold/baseline)
[2]
  M-DP score mean ± SD, All treated: −1.21 ± 0.78 log2 (fold/baseline)
  M-DP score mean difference ± SD, Good vs. No: −0.47 ± 0.76 (0.0041) log2 (fold/baseline)
  M-DP score mean ± SD, DAS28-CRP response group Good: −1.39 ± 0.75 log2 (fold/baseline)
  M-DP score mean ± SD, DAS28-CRP response group Moderate: −1.01 ± 0.75 log2 (fold/baseline)
  M-DP score mean ± SD, DAS28-CRP response group No: −0.92 ± 0.81 log2 (fold/baseline)
[3]
  M-DP score mean ± SD, All treated: −1.43 ± 0.82 log2 (fold/baseline)
  M-DP score mean ± SD, DAS28-CRP response group Good: −1.50 ± 0.83 log2 (fold/baseline)
  M-DP score mean ± SD, DAS28-CRP response group Moderate: −1.46 ± 0.57 log2 (fold/baseline)
  M-DP score mean ± SD, DAS28-CRP response group No: 0.27 ± 0.00 log2 (fold/baseline)
[4]
  M-DP score mean ± SD, All treated: −1.79 ± 0.78 log2 (fold/baseline)
  M-DP score mean ± SD, DAS28-CRP response group Good: −1.80 ± 0.80 log2 (fold/baseline)
  M-DP score mean ± SD, DAS28-CRP response group Moderate: −1.84 ± 0.95 log2 (fold/baseline)
  M-DP score mean ± SD, DAS28-CRP response group No: −1.59 ± 0.19 log2 (fold/baseline)
[5]
  M-DP score mean ± SD, All treated: −0.88 ± 0.69 log2 (fold/baseline)
  M-DP score mean difference ± SD, Good vs. No: −0.40 ± 0.59 (0.0549) log2 (fold/baseline)
  M-DP score mean ± SD, DAS28-CRP response group Good: −0.92 ± 0.65 log2 (fold/baseline)
  M-DP score mean ± SD, DAS28-CRP response group Moderate: −0.95 ± 0.74 log2 (fold/baseline)
  M-DP score mean ± SD, DAS28-CRP response group No: −0.52 ± 0.41 log2 (fold/baseline)
[6]
  M-DP score mean ± SD, All treated: −1.69 ± 0.76 log2 (fold/baseline)
  M-DP score mean difference ± SD, Good vs. No: −0.96 ± 0.66 (0.0010) log2 (fold/baseline)
  M-DP score mean ± SD, DAS28-CRP response group Good: −1.92 ± 0.63 log2 (fold/baseline)
  M-DP score mean ± SD, DAS28-CRP response group Moderate: −1.34 ± 0.75 log2 (fold/baseline)
  M-DP score mean ± SD, DAS28-CRP response group No: −0.96 ± 0.85 log2 (fold/baseline)
[7]
  M-DP score mean ± SD, All treated: −1.87 ± 0.75 log2 (fold/baseline)
  M-DP score mean ± SD, DAS28-CRP response group Good: −1.86 ± 0.69 log2 (fold/baseline)
  M-DP score mean ± SD, DAS28-CRP response group Moderate: −1.99 ± 0.94 log2 (fold/baseline)
  M-DP score mean ± SD, DAS28-CRP response group No: −1.21 ± 0.43 log2 (fold/baseline)
[8]
  M-DP score mean ± SD, All treated: −1.02 ± 0.84 log2 (fold/baseline)
  M-DP score mean difference ± SD, Good vs. No: −0.39 ± 0.73 (0.0126) log2 (fold/baseline)
  M-DP score mean ± SD, DAS28-CRP response group Good: −0.91 ± 0.75 log2 (fold/baseline)
  M-DP score mean ± SD, DAS28-CRP response group Moderate: −0.82 ± 0.79 log2 (fold/baseline)
  M-DP score mean ± SD, DAS28-CRP response group No: −0.50 ± 0.70 log2 (fold/baseline)
[9]
  M-DP score mean ± SD, All treated: −0.79 ± 0.76 log2 (fold/baseline)
  M-DP score mean difference ± SD, Good vs. No: −0.34 ± 0.81 (0.0416) log2 (fold/baseline)
  M-DP score mean ± SD, DAS28-CRP response group Good: −1.13 ± 0.80 log2 (fold/baseline)
  M-DP score mean ± SD, DAS28-CRP response group Moderate: −1.05 ± 0.93 log2 (fold/baseline)
  M-DP score mean ± SD, DAS28-CRP response group No: −0.79 ± 0.83 log2 (fold/baseline)
[10]
  M-DP score mean ± SD, All treated: −0.85 ± 0.81 log2 (fold/baseline)
  M-DP score mean difference ± SD, Good vs. No: −0.43 ± 0.79 (0.0167) log2 (fold/baseline)
  M-DP score mean ± SD, DAS28-CRP response group Good: −0.98 ± 0.81 log2 (fold/baseline)
  M-DP score mean ± SD, DAS28-CRP response group Moderate: −0.88 ± 0.81 log2 (fold/baseline)
  M-DP score mean ± SD, DAS28-CRP response group No: −0.55 ± 0.76 log2 (fold/baseline)
[11]
  M-DP score mean ± SD, All treated: −1.03 ± 0.83 log2 (fold/baseline)
  M-DP score mean difference ± SD, Good vs. No: −0.44 ± 0.78 (0.0067) log2 (fold/baseline)
  M-DP score mean ± SD, DAS28-CRP response group Good: −1.18 ± 0.80 log2 (fold/baseline)
  M-DP score mean ± SD, DAS28-CRP response group Moderate: −1.19 ± 0.90 log2 (fold/baseline)
  M-DP score mean ± SD, DAS28-CRP response group No: −0.74 ± 0.75 log2 (fold/baseline)
